Reference: patent US20150203579A1 (Regeneron, published 2015)
Read-outs that look alike come from different tables or passages of the source.

How the values were obtained:
[1] = target: T1, PD-1 chimera: extracellular domain of human PD-1 with trans-membrane and cytoplasmic domains of human CD300a, … (human, UniProt Q9UGN4 181-299, limits assumed); test: cell-based or functional assay
[2] = target: T2, full length human PD-1 on HEK293/hPD-1 cells (human, UniProt Q15116 25-288); test: FACS dose response, HEK293/hPD-1 cells; EC50 Inconclusive
T2 sequence (Q15116 25-288 limits assumed): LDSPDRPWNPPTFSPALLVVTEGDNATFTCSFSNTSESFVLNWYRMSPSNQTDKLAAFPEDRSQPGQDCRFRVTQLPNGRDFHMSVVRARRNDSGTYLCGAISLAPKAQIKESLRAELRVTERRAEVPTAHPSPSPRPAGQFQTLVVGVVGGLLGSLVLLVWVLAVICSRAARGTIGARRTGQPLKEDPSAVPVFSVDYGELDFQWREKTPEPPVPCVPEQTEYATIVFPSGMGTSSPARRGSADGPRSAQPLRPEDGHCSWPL
Description: (§1) For the assay, adherent cells were detached using trypsin and blocked with complete medium. Cells were centrifuged and resuspended at a concentration of 6×10̂6 cells/mL in staining buffer (1% FBS in PBS). To determine the EC₅₀ and Eₘₐₓ of the anti-PD1 antibodies, 90 uL of cell suspension was incubated for 30 minutes on ice with a serial dilution of anti-PD-1 antibodies and controls diluted to a final concentration ranging from 5 pM to 100 nM (no mAb sample was included as negative control) in staining buffer. Cells were then centrifuged and pellets were washed once with staining buffer to remove unbound antibodies. […] The following day, cells were centrifuged and pellets were washed once with staining buffer, resuspended and filtered. Fluorescence measurements were acquired on Hypercyt® cytometer and analyzed in ForeCyt™ (IntelliCyt; Albuquerque, N. Mex.) to determine the mean fluorescence intensities (MFI). The EC₅₀ values were calculated from a four-parameter logistic equation over an 11-point response curve using GraphPad Prism. Eₘₐₓ for each antibody was defined as the binding at the highest antibody dose (100 nM) tested.

[3] = target: T3, recombinant human PD-1 expressed with a C-terminal human IgG1 Fc tag (human); test: SPR Biacore 3000: 100 nM hPD-1.hFc + 500 nM mAb to captured hPD-L1.mFc;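 also: inhibition study with anti-PD-1 mAbs, SPR responses tracked in real time and read at the close of each step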
T3 construct: also called hPD-1-hFc; hPD1-hFc
T3 sequence (chain, as listed by the source limits assumed): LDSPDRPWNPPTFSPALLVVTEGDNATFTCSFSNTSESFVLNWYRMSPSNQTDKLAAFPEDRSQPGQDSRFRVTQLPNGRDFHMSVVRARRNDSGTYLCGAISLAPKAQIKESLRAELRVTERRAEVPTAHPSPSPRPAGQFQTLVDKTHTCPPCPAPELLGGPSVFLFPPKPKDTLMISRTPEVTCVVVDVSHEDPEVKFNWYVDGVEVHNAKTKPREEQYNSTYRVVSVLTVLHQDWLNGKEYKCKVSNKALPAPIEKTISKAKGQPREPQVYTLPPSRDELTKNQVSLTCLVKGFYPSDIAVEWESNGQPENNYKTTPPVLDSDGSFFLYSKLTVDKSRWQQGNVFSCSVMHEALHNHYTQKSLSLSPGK
Description: Next, inhibition studies for anti-PD-1 monoclonal antibodies expressed with human Fc were performed on a Biacore 3000 instrument. […] The real-time binding responses were monitored during the entire course of the experiment and the binding response at the end of every step was recorded.

[4] = target: T4, recombinant human PD-L1 expressed with a C-terminal mouse IgG2a Fc tag (human); test: SPR Biacore 3000: 500 nM mAb alone (no hPD-1.hFc) over captured hPD-L1.mFc surface, control
T4 construct: also called hPD-L1-mFc; hPD-L1.mFc

monkey PD-1 with mFc [5] = target: T5, monkey PD-1 with mFc (monkey); test: SPR, captured mAb, 25 C;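 also: purified anti-PD-1 antibodies tested on Biacore 4000 or T200 instruments, rate constants obtained via 1:1 binding model fit, with KD as kd/ka and half-life as ln2/(60·kd)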
T5 construct: also called monkey PD-1-mFc; monkey PD-1 dimer
T5 chain: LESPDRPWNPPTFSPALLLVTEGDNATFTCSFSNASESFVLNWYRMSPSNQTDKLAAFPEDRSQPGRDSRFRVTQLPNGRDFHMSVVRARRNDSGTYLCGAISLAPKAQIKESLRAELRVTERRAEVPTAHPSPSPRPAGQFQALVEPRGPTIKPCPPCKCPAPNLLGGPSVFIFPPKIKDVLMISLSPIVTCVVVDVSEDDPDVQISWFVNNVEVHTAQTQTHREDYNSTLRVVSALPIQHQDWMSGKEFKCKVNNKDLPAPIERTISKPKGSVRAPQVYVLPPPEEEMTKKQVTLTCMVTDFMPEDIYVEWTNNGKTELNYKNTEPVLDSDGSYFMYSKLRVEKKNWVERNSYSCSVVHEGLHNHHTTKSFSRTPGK
Description: (§2) Binding association and dissociation rate constants (kₐ and kd, respectively), equilibrium dissociation constants and dissociation half-lives (KD and t_{1/2}, respectively) for antigen binding to purified anti-PD1 antibodies were determined using a real-time surface plasmon resonance biosensor assay on a Biacore 4000 or Biacore T200 instrument. […] Experiments were performed at 25° C. and 37° C. Kinetic association (kₐ) and dissociation (kd) rate constants were determined by processing and fitting the data to a 1:1 binding model using Scrubber 2.0c curve fitting software. Binding dissociation equilibrium constants (KD) and dissociative half-lives (t_{1/2}) were then calculated from the kinetic rate constants as: KD(M)=kd/kₐ and t_{1/2} (min)=[In2/(60*kd)].

monkey PD-1 with mFc [6] = target: T5, monkey PD-1 with mFc; test: SPR, captured mAb, 37 C;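 also: Real-time Biacore surface plasmon resonance biosensor readout of PD-1 reagent binding to purified anti-PD-1 monoclonal antibodies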
Description: as §2

[7] = target: T2, full length human PD-1 on HEK293/hPD-1 …; test: FACS, 100 nM mAb, HEK293/hPD-1 cells;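 also: antibodies incubated with cells for 15-30 min on ice, bound antibody detected through a secondary F(ab′)2 by flow cytometry, with parental HEK293 cells tested in parallel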
Description: (§3) For the assay, adherent cells were detached using trypsin or enzyme-free dissociation buffer and blocked with complete medium. Cells were centrifuged and resuspended at a concentration of 2.5-6×10̂6 cells/mL in cold PBS containing 2% FBS. HEK293 parental and HEK293/hPD-1 cells were then incubated for 15-30min on ice with 100 nM of each anti-PD-1 antibody. […] Cells were washed with D-PBS containing 2% FBS to remove unbound secondary F(ab′)2 and fluorescence measurements were acquired using either a HyperCyte (IntelliCyt, Inc.) flow cytometer or an Accuri flow cytometer (BD Biosciences). Data was analyzed using FlowJo software (Tree Star).

[8] = target: T6, recombinant human PD-1 dimer expressed with a C-terminal mouse IgG2a Fc tag (human); test: competition ELISA: 1.5 nM hPD-1-mFc to coated hPD-L1-hFc
T6 construct: also called hPD-1-mFc
Description: (§4) Data analysis was performed using a sigmoidal dose-response model within Prism™ software (GraphPad). […] Percent maximum blockade was calculated as a measure of the ability of the antibodies to completely block binding of human PD-1 to human PD-L1 or PD-L2 on the plate as determined from the dose curve.

[9] = target: T6, recombinant human PD-1 dimer expressed …; test: competition ELISA: 100 pM hPD-1-mFc to coated hPD-L2-hFc
Description: as §4

monkey PD-1 with mFc [10] = target: T5, monkey PD-1 with mFc; test: SPR, captured mAb, 37 C; no dissociation observed, kd fixed at 1.00E-05;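 as to 100 nM Monkey PD-1-mFc Bound (RU): Real-time Biacore surface plasmon resonance biosensor readout of PD-1 reagent binding to purified anti-PD-1 monoclonal antibodies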;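 as to koff: Real-time Biacore surface plasmon resonance biosensor readout of PD-1 reagent binding to purified anti-PD-1 monoclonal antibodies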;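 as to kon: Real-time Biacore surface plasmon resonance biosensor readout of PD-1 reagent binding to purified anti-PD-1 monoclonal antibodies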
Description: as §2

[11] = target: T7, recombinant human PD-1 expressed with a C-terminal myc-myc-hexahistidine tag (human); test: SPR (Biacore), mAb captured, hPD-1-MMH injected, 25 C;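 also: rate constants obtained by fitting sensorgrams to a 1:1 binding model, KD derived as kd/ka and half-life as ln2/(60·kd) in minutes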
T7 construct: also called hPD-1-MMH; human PD-1-MMH
Description: as §2

monkey PD-1 with mFc [12] = target: T8, monkey PD-1 with mFc (monkey (MfPD-1)); test: SPR (Biacore), monkey PD-1-mFc, 37 C; end of range tied to H4xH9008P by Table 11 (kd fixed at 1.00E-05)
T8 construct: also called monkey PD-1-mFc; monkey PD-1 dimer
T8 chain: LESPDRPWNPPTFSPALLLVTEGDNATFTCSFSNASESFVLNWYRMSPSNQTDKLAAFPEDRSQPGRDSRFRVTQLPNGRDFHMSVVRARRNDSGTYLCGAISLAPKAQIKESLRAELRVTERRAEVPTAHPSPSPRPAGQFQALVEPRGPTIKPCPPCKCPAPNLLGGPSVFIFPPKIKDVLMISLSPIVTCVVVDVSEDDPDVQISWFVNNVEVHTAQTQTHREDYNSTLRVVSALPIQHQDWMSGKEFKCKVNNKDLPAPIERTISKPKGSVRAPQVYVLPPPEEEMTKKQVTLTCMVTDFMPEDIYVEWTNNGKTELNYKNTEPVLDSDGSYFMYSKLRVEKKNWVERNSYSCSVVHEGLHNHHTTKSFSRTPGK
Description: as §2

[13] = target: T9, recombinant cynomolgus monkey PD-1 expressed with a C-terminal myc-myc-hexahistidine tag (cynomolgus monkey (Macaca fascicularis)); test: SPR (Biacore), MfPD-1-MMH, 25 C; end of range tied to H4H9057P2 by Table 8
T9 construct: Monomeric reagent; also called MfPD-1-MMH
T9 chain: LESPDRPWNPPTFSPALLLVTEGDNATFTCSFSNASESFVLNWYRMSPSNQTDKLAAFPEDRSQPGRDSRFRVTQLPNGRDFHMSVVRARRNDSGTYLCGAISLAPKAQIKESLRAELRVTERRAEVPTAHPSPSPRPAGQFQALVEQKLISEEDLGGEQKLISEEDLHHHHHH
Description: as §2

[14] = target: T10, recombinant human PD-1 dimer expressed with a C-terminal mouse IgG2a Fc tag (human); test: competition ELISA: blocking 1.5 nM hPD-1-mFc binding to coated hPD-L1-hFc; end tied to H4H9057P2 by Table 12 (below theoretical bottom 0.75 nM)
T10 construct: also called hPD-1-mFc; human PD-1-mFc
Description: as §4

[15] = target: T2, full length human PD-1 on HEK293/hPD-1 …; test: FACS, 100 nM mAb
Description: as §3

[16] = target: T1, PD-1 chimera: extracellular domain of …; test: cell-based or functional assay; remark: listed apart in the source
[17] = target: T2, full length human PD-1 on HEK293/hPD-1 …; test: FACS dose response, HEK293/hPD-1 cells; No EC50 determined
Description: as §1

monkey PD-1 with mFc [18] = target: T8, monkey PD-1 with mFc; test: SPR (Biacore), monkey PD-1-mFc, 25 C; end of range tied to H4H9068P2 by Table 10
Description: as §2

monkey PD-1 with mFc [19] = target: T8, monkey PD-1 with mFc; test: SPR (Biacore), monkey PD-1-mFc, 37 C; end of range tied to H4H9068P2 by Table 11
Description: as §2

[20] = target: T9, recombinant cynomolgus monkey PD-1 …; test: SPR (Biacore), MfPD-1-MMH, 25 C; end of range tied to H4xH8999P by Table 8
Description: as §2

[21] = target: T9, recombinant cynomolgus monkey PD-1 …; test: SPR (Biacore), MfPD-1-MMH, 37 C; end of range tied to H4xH9045P by Table 9
Description: as §2

[22] = target: T6, recombinant human PD-1 dimer expressed …; test: BLI Octet: 100 nM hPD-1-mFc + 500 nM mAb to captured hPD-L1-hFc
Target sequence in this assay (chain, as listed by the source limits assumed): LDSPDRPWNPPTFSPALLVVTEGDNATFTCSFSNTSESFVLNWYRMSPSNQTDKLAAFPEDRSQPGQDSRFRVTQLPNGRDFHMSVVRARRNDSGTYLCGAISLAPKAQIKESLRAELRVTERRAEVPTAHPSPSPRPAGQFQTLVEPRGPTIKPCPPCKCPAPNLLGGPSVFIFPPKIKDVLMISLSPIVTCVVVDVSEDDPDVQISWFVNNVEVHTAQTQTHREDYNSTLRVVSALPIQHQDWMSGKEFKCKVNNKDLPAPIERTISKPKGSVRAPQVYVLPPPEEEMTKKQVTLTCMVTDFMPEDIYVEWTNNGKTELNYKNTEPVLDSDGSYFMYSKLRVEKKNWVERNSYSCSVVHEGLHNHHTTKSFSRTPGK
Description: Inhibition studies for anti-PD-1 monoclonal antibodies expressed with a mouse Fc were performed on an Octet Red 96 instrument. […] The biosensors were washed in Octet HBST buffer in between each step of the experiment. The real-time binding responses were monitored during the entire course of the experiment and the binding response at the end of every step was recorded.

T1 sequence (Q9UGN4 other isoform, or with tags, fused parts or gaps mutant limits assumed, form in doubt): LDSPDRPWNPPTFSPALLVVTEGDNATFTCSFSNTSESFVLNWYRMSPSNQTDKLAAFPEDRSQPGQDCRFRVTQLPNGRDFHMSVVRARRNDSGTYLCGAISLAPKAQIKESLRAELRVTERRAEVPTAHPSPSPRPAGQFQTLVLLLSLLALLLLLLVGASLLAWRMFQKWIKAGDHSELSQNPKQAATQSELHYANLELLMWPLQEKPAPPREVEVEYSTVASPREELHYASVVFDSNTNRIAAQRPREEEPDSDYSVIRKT

B1: H4H9008P (antibody, human IgG4 S228P, kappa, V domains shown)
VH: EVQLVESGGGLVRPGGSLRLSCAASGFTFSTYAMAWVRQTPGKGLEGVSAIGGSGDSTYYVDSVKGRFTISRDNSKSTLFLQMNSLRAEDTAVYYCVKVRNYDGSFDIWGQGTMVTVSS
VL: not shown
notes: human IgG4 Fc
Emax mean [%] @ 100 nM [1]: 150%
Max Geom. Mean MFI @ 100 nM [2]: 32200 MFI
% Blocking [3]: 107%
binding of the mixture (RU) [3]: -7 RU
500 nM of anti-PD-1 monoclonal antibody (RU) [4]: -7 RU

B2: H4xH9008P (antibody, V domains shown)
VH: EVQLVESGGGLVRPGGSLRLSCAASGFTFSTYAMAWVRQTPGKGLEGVSAIGGSGDSTYYVDSVKGRFTISRDNSKSTLFLQMNSLRAEDTAVYYCVKVRNYDGSFDIWGQGTMVTVSS
VL: not shown
notes: human IgG4 Fc with 2 or more amino acid changes (US20100331527)
Kd (monkey PD-1 with mFc [5]): 0.48 nM
t1/2 (monkey PD-1 with mFc [5]): 200 min
100 nM Monkey PD-1-mFc Bound (RU) (monkey PD-1 with mFc [6]): 98 RU
MFI [7]: 26200 MFI
% blocking at 200 nM antibody [8]: 88%
IC50 [8]: 2.4 nM
% blocking at 100 nM antibody [9]: 94%
binding of the mixture (RU) [3]: 1 RU
Kd (monkey PD-1 with mFc [10]): ≤ 0.049 nM
t1/2 (monkey PD-1 with mFc [10]): ≥ 1160 min
500 nM of anti-PD-1 monoclonal antibody (RU) [4]: 0 RU

B3: H4xH9008P (antibody, human IgG4, V domains shown)
VH: EVQLVESGGGLVRPGGSLRLSCAASGFTFSTYAMAWVRQTPGKGLEGVSAIGGSGDSTYYVDSVKGRFTISRDNSKSTLFLQMNSLRAEDTAVYYCVKVRNYDGSFDIWGQGTMVTVSS
VL: not shown
notes: H4xH: modified human IgG4 Fc
Kd [11]: 31 nM
t½ [11]: 8.7 min
Kd (monkey PD-1 with mFc [12]): < 0.049 nM

B4: H4H9057P2 (antibody, human IgG4, V domains shown)
VH: EVQLVESGGGLVQSGRSLRLSCAASGFTFDDYAMHWVRQPPGKGLEWVSGINWNRGRTGYADSVKGRFTISRDNAKNSLYLQMNDLRVEDTALYYCAKAEQWLDEGYFDYWGQGTLVTVSS
VL: not shown
notes: Human IgG4 Fc (H4H prefix)
Kd [11]: 291 nM
koff [11]: 0.0134 s⁻¹
kon [11]: 46000 M⁻¹ s⁻¹
t½ [11]: 0.9 min
Kd [13]: 551 nM
IC50 [14]: 0.19 nM

B5: H4H9068P2 (antibody, V domains shown)
VH: EVQLVESGGGLVQRGGSLRLSCAASGFSFSSYAMNWVRQAPGKGLEWVSTISDSGGSTYYADSVKGRFTISRDNSKNTLSLQMNSLRAEDTAVYYCAKDQGGSYPYYFHYWGQGTLVTVSS
VL: not shown
notes: fully human; H4H prefix (human IgG4 Fc)
ratio of MFI HEK293/hPD-1 to HEK293 parental cells [15]: 6.8
Emax mean [%] @ 100 nM [16]: 102%
100 nM Monkey PD-1-mFc Bound (RU) (monkey PD-1 with mFc [5]): 17 RU
Kd (monkey PD-1 with mFc [5]): 54.2 nM
koff (monkey PD-1 with mFc [5]): 0.00309 s⁻¹
kon (monkey PD-1 with mFc [5]): 57000 M⁻¹ s⁻¹
t1/2 (monkey PD-1 with mFc [5]): 4 min
100 nM Monkey PD-1-mFc Bound (RU) (monkey PD-1 with mFc [6]): 6 RU
Kd (monkey PD-1 with mFc [6]): 86.3 nM
koff (monkey PD-1 with mFc [6]): 0.0105 s⁻¹
kon (monkey PD-1 with mFc [6]): 121000 M⁻¹ s⁻¹
t1/2 (monkey PD-1 with mFc [6]): 1.1 min
MFI [7]: 1940 MFI
Max Geom. Mean MFI @ 100 nM [17]: 639 MFI
500 nM of anti-PD-1 monoclonal antibody (RU) [4]: -2 RU

B6: H4H9068P2 (antibody, human IgG4, V domains shown)
VH: EVQLVESGGGLVQRGGSLRLSCAASGFSFSSYAMNWVRQAPGKGLEWVSTISDSGGSTYYADSVKGRFTISRDNSKNTLSLQMNSLRAEDTAVYYCAKDQGGSYPYYFHYWGQGTLVTVSS
VL: not shown
notes: Human IgG4 Fc (H4H prefix)
Kd (monkey PD-1 with mFc [18]): 54.2 nM
Kd (monkey PD-1 with mFc [19]): 86.3 nM

B7: H4xH8999P (antibody, human IgG4, V domains shown)
VH: QLQLQESGPGLVQPSETLSLTCTVSGDSISSTAYHWDWIRQPPGKGLEWIGTITYNGNTYFNPSLKSRVTISVDTSKNQFSLKLLSMTAAETAVFYCARHLGYNSDFFPFDFWGQGTLVTVSS
VL: not shown
notes: H4xH: modified human IgG4 Fc
Kd [11]: 4.33 nM
t½ [11]: 9.4 min
Kd [20]: 3.09 nM

B8: H4xH9045P (antibody, human IgG4, V domains shown)
VH: EVQLVESGGGLVQPGRSLRLSCAASGFTFDDYDMHWVRQAPGKGLEWVSGSGWNRGSLGYADSVKGRFTISRDNAKKSLYLQMNSVRVEDTALYYCAKGFVVVSAAYFDYWGQGTLVTVSS
VL: not shown
notes: H4xH: modified human IgG4 Fc; also called H4xH9045P2
Kd [11]: 74.6 nM
koff [11]: 0.00403 s⁻¹
kon [11]: 54000 M⁻¹ s⁻¹
t½ [11]: 2.9 min
Kd [21]: 7540 nM

B9: H4H7795N2 (antibody, human IgG4 S228P, kappa, V domains shown)
VH: EVQVVESGGGLVEPGRSLRLSCKASGFTFDDYAMHWVRQTPGKALEWVSGISWSGNNIGYADSVKGRFTISKDDAKNSLYLQMNSLRPEDTALYYCTKDISITGTLDAFDVWGQGTMVTVSS
VL: DIQMTQSPISVSASVGDRVTITCRASQGISNWLAWYQQKPGIAPKLLIYSASSLQSGVPSRFRGSGSGTDFTLTIGSLQPEDFATYYCQQAHSFPLTFGGGTKVEIKR
notes: human IgG4 Fc
Emax mean [%] @ 100 nM [1]: 110%
100 nM Monkey PD-1-mFc Bound (RU) (monkey PD-1 with mFc [5]): 60 RU
Kd (monkey PD-1 with mFc [5]): 0.621 nM
koff (monkey PD-1 with mFc [5]): 9.92e-05 s⁻¹
kon (monkey PD-1 with mFc [5]): 160000 M⁻¹ s⁻¹
t1/2 (monkey PD-1 with mFc [5]): 116 min
100 nM Monkey PD-1-mFc Bound (RU) (monkey PD-1 with mFc [6]): 47 RU
Kd (monkey PD-1 with mFc [6]): 1.71 nM
koff (monkey PD-1 with mFc [6]): 0.00029 s⁻¹
kon (monkey PD-1 with mFc [6]): 170000 M⁻¹ s⁻¹
t1/2 (monkey PD-1 with mFc [6]): 40 min
Max Geom. Mean MFI @ 100 nM [2]: 15200 MFI
% Blocking [3]: 106%
binding of the mixture (RU) [3]: -6 RU
500 nM of anti-PD-1 monoclonal antibody (RU) [4]: -5 RU

B10: H1M7789N (antibody, V domains shown)
VH: EVQLLESGGGLVQPGGSLRLSCSASGFTFSSYTMNWVRQAPGKGLEWVSGISDTGGNTYYTDSVKGRFTVSRDNSKNTLSLQMNSLRAEDTAVYYCAKDQGGSYPYYFHYWGQGSLVTVSS
VL: DIQMTQSPSSLSASVGDRVTITCRASQSISSYLIWYQQKPGTAPKFLIYAASSLQSGVPSRFSGCGSGTDFTLTISSLQPEDFATYYCQQSYSTPPITFGQGTRLEIK
notes: human variable regions, mouse IgG1 Fc
ratio of MFI HEK293/hPD-1 to HEK293 parental cells [15]: 92.3
Emax mean [%] @ 100 nM [16]: 135%
MFI [7]: 24200 MFI
Max Geom. Mean MFI @ 100 nM [2]: 35600 MFI
% Blocking [22]: 29%
binding of the mixture (nm) [22]: 0.05 nm
